Source: the RNAGym collection of RNA variant scans (doi:10.1073/pnas.2313332121)

B1: TPR t1 (parent)
chain: GACCAAUCUGCCCUCAGAGCUCGAGAACAUCUUCGGAUGCAGAGGAGGCAGGCUUCGGUGGCGCGAUAGCGCCAACGUCCUCAACCUCCAAUGCAUCCCACCACAUGAUGAUGCCUGAAGAGCCUUGGUUUUUUG

Variants of: B1
Assay: polymerase ribozyme fitness, log enrichment relative to wild type (log ratio); higher = more active; in vitro selection for triplet polymerase activity
Summary of the method: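 Mutant libraries were PCR-built and transcribed for each subunit of a heterodimeric triplet polymerase ribozyme and selected for one round in triplicate at −7 °C, frozen, before gel excision of extended constructs and streptavidin-bead capture. Input and output libraries were Illumina-sequenced, keeping genotypes with ≥10 input reads and ≥1 read per output. Fitness is a logarithmic ratio of genotype to wild-type enrichment, in base 2, using inverse-variance-weighted replicate averages.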

Row | Variant | polymerase ribozyme fitness (log ratio)
1 | C40G A43C G69U G120C | -0.592
2 | C40A A41U G69U G135C | -0.488
3 | C40G C80U G122U | -3.37
4 | G39U G45C U87A C114U | -6.43
5 | C40A C85A | -1.95
6 | G39U C124A | 0.161
7 | C40A A50G G71U C85U | -2.76
8 | C40A U78A C79U U109A | -6.14
9 | G39U U78C G120A | 0.169
10 | G39U A43C C62U G127A | -4.5
11 | G39A G135C | -0.0346
12 | C40A C56U C72G | -3.26
13 | G39U C62U G117U | -3.18
14 | C40A G60A G110C | -6.85
15 | C40A G61C A118U U130G | -3.57
16 | C40A A46U C79G C104U | -6.75
17 | G39U C123U | 0.845
18 | G39U C123G | 0.0216
19 | G39U C70U A103C C114U A119U G120A U130A | -5.71
20 | C40A G42A C56G C72A A84C | -4.52
21 | G39U G110C A121C | -4.8
22 | C40G C56U | -1.79
23 | C40G C53U A121C | 1.26
24 | C40G A100C | -2.29

Row | Variant | polymerase ribozyme fitness (log ratio)
25 | G39U A68G C123U U133A | -2.96
26 | G39U C115G | -2.58
27 | G39U A68G C70U A121U | -2.23
28 | C40A C79G G93C G110A U133A | -5.44
29 | G39C C88U G135U | -2.39
30 | G39U A50U G60U G61A C79A | -3.64
31 | C40A A105G | -4.43
32 | G39U C101G | -3.29
33 | C40G C62A | -1.9
34 | G39A G110U | -2.32
35 | C40A G48U | -1.61
36 | G39C C56G A111C G128A | -3.6
37 | C40A A84G A95C U125G U126G U129A | -4.98
38 | C40A C64U C80U | -2.24
39 | G39A G45C G60U G69U C82U | -5.66
40 | C40G C104U G113C G122A | -3.43
41 | G39C G45A | -0.954
42 | G39U G61A A75U U81C C99A G117U | -7.32
43 | G39U G61C | -1.66
44 | G39A G44C | -1.34
45 | C40A C49U U59A G60A G117C | -7.16
46 | G39A G61A | -0.128
47 | G39U C62A C70U | -2.07
48 | G39U C88U A121G | 0.804

Row | Variant | polymerase ribozyme fitness (log ratio)
49 | G39C C86U | -2.09
50 | G39A U129C | -0.434
51 | C40G C114A | -2.35
52 | C40A G60A G113U G122C | -4.23
53 | G39U C62U | -1.71
54 | C40A A41C C49A C70U U92A C102G U109A | -6.25
55 | G39C U78A | -0.87
56 | G39U C53A C82A C124G | 1.35
57 | G39U C94U G113C A118C | -3.27
58 | G39A U54A | -0.685
59 | C40G C101U | -1.22
60 | C40A C89G C94A | -4.16
61 | C40A G48A U55A G60A A95G G120C | -1.53
62 | C40A C62A A118G | -2.61
63 | C40G C56U A100U C101G | -2.81
64 | G39A G128A | -2.58
65 | G39C G71U | -0.983
66 | C40G A90C U106C U116G A119G U125G | -3.17
67 | C40G C94G A121U | -0.125
68 | G39U A74G G110C A111G | -5.64
69 | G39U C56G C102U | -2.53
70 | C40A G135U | -2.63
71 | C40G C56A U106C | -1.47
72 | G39U C49U C56U | -1.53

Row | Variant | polymerase ribozyme fitness (log ratio)
73 | C40A C114G | -3.8
74 | C40G A111C | -0.485
75 | C40G A111G | -0.323
76 | G39A G48U G71U U116A U129A | -5.41
77 | C40A C88A G117A | -3.85
78 | C40G A74G C86A | -1.94
79 | G39U U106C | -0.461
80 | C40A G47A G63U | -4.41
81 | G39C U54A A74G | -0.531
82 | G39A G48A C56G G69U A105C | -2.52
83 | C40A G61C U126G | -5.2
84 | C40G C72G U92A G113U | -4.69
85 | C40A U54C C82G A118U C123U | -0.573
86 | G39C C101A | -1.69
87 | G39U G113A U132A | -2.47
88 | C40A C102A G113U C124A | -6.46
89 | G39C C40A | -3.01
90 | G39U C86G C104A | -4.01
91 | C40G A46U C56A U92A C114U | -6.09
92 | C40G G45A A46C G51C G58A G63C G110A G113U G117C | -7.24
93 | G39C G48A C49U C89A | -4.19
94 | G39U G60A C76G | -3.27
95 | C40A A43U C70U C86U G93U C97G G135C | -6.34
96 | C40G C124U | 0.744

Row | Variant | polymerase ribozyme fitness (log ratio)
97 | C40A U78G C88G | -4.1
98 | G39C C97A | -5.8
99 | G39C U109A G110U | -3.37
100 | C40G C64U | -1.16
101 | G39A G51U U129G | -5.53
102 | G39U C49G C64U G117C | -4.42
103 | G39U G120A | -0.0767
104 | G39U G61U U106A | -0.274
105 | G39C C98A | -5.08
106 | C40A U92G | -2.37
107 | G39U C49U C97A C124A G127A | -5.83
108 | G39C A43C G69U C82G U96C | -3.31
109 | G39U G77U C89U | -1.38
110 | G39U G44U C53G C62A C98U U112A U129C U130A | -5.78
111 | G39U C49A C72A G93C A95C C115U | -5.1
112 | C40G A43C A111C A119G | -4.45
113 | C40A A43U G44C G71U C82A | -4.65
114 | C40A G60A C85G | -2.93
115 | G39A G48C | -1.23
116 | C40A C64U | -2.19
117 | G39U G128C | -3.25
118 | C40G C49G G61U U87G U129A | -2.49
119 | G39U C40U G42A C56U | -2.23
120 | C40A G61U G93U A100C | -1.18

Row | Variant | polymerase ribozyme fitness (log ratio)
121 | G39A U78C | -1.06
122 | G39C C72U | -1.18
123 | G39C U54G C70A | -3.74
124 | C40A G77A A84U C94U U106A | -2.81
125 | C40G G45U C88G U92A | -4.08
126 | C40A G93A A111C | -1.04
127 | G39A G71C | -2.63
128 | G39A G51U | -3.49
129 | C40G C88U G122A | -2.03
130 | C40A C79A | -2.9
131 | C40A C72G U78C A121G U132A | 0.388
132 | G39U G51A A118G | -4.52
133 | C40G A43U U112G A119U U126A | -4.57
134 | G39U G48U | -1.59
135 | C40A G48A C86A | -2.18
136 | G39U G63A | -1.75
137 | C40G C56G C70A | -4.24
138 | C40A U78C U92A C115U | -4.02
139 | C40G C72U C102U U116G C124U | -4.29
140 | G39U G113A | -1.25
141 | G39C C49U | -1.61
142 | C40G C49U A74U U78A | -3.07
143 | G39C C115U G120C | -1.04
144 | G39U G45A | -2.22

Row | Variant | polymerase ribozyme fitness (log ratio)
145 | C40G C70A | -3.86
146 | G39U C56U C73U | -1.4
147 | C40A G47A | -3.03
148 | G39U G61C U130G | -2.15
149 | C40A C104U G110A C124U | -2.31
150 | G39U C53G C123U | 1.06
151 | G39A G45C | -2.32
152 | G39U C72G C82G | -2.35
153 | G39U A50U | -1.79
154 | G39U C70G | -4.12
155 | G39A G93A U112G C123A | -3.6
156 | G39U C49A C80U | -3.62
157 | G39A G44U C82A A95C C115G | -3.83
158 | G39C U55A C56A G63U A121U | -4.47
159 | G39U G61A C101U G117A A118G U125A | -0.872
160 | G39U U92C C101G | -5.46
161 | G39U G63C A91C G113U A121C | -3.83
162 | C40A A74G U130C | -0.804
163 | G39U G52U | -1.9
164 | G39U G52A | -1.4
165 | C40A C124U | 0.897
166 | C40G C64G C85A U112C | -6.02
167 | C40G G44C C73U U125G | -2.93
